This assay deals with elastase enzyme. Briefly: cell-based or functional assay.

This is an account of results in patent publication US20220062145A1 (LIPOTRUE S L, published 2022).

B1: Ac-Ala-Leu-His-Lys-Val-Lys-NH2 (peptide)
peptide: Ac-ALHKVK-NH2
Turning to B1, the “percentage of elastase inhibition with regard to the positive control (PMSF = 100%), absorbance at 405 nm” value was ~39 % of positive control.
